Measured values published in patent CN101066999A.

What was measured:
[1] = substrate: 人OPN (Osteopontin, R&D Systems) (human) (UniProt P10451); assay: sandwich ELISA: mAb coated at 1.0 μg/ml, OPN standard, rabbit anti-human OPN polyclonal serum as detector
[2] = substrate: 人OPN (Osteopontin, R&D Systems) (human) (UniProt P10451); assay: sandwich ELISA: mAbs coated at 1.0 μg/ml; OPN at 6.25-100 pg/mL for this mAb and 6.25-100 ng/mL for the commercial mAb

灵敏度 (detection sensitivity for OPN) [1]: 6.52 pg/mL
fold higher sensitivity for human OPN than the commercial mAb MAB14331 [2]: 1000 fold
B1: 重组抗OPN单克隆抗体 7G2 (antibody, V domains shown)
VL: DILMTQTPLSLPVSLGDQASISCRSSQSLVHSNGNTYLHWYLQKPGQSPKLLISKVSNRFSGVPDRFSGSGSGTDFTLKISRVEAEDLGVYFCSQSTHVPWTFGGGTKLEIKR
VH: MAQVQLEQSGPELVKPGASVKMSCKSSGYTFTTYVMHVKQKPGQGLEWIGYINPYNDGSKYNEKFKGKATLTSDKSSNTAYMELSSLTSEDSAVYYSDSHYGGSPAYWGQGTLVTVSA
